One data set relates to N[C@@H](CC(=O)O)C(=O)O. The experiment in a line: purified protein, by the assay type. As to conditions: other: 25 mM Hepes, pH 6.8, 10% ethylene glycol.
A further data set relates to N[C@@H](CO)C(=O)O. The experiment in a line: purified protein, by the assay type. The conditions noted are these: other: 25 mM Hepes, pH 6.8, 10% ethylene glycol.
The next data set relates to O=C(O)CNCP(=O)(O)O. Put plainly: purified protein, by the assay type. As to conditions: other: 25 mM Hepes, pH 6.8, 10% ethylene glycol.
The nature of data set [1]: Kinetic parameters by continuous spectrophotometric assay in the presence of 20 mM KCl, protein quantified via UV absorbance. The conditions noted are these: templates GAT 24-5H5 or GAT 25-8H7. The data set is classed as biochemical. The procedure:
The further evolved gat genes were first selected for growth in E. coli in minimal M9 medium as described in Example 8, except that 5 mM rather than 1 mM glyphosate was used in the selection. Proteins were purified as described in Example 6 above.
Protein concentrations were determined by UV absorbance at 205 nm. The extinction coefficient was determined by the method described by Scopes (1994; Protein Purification, Principles and Practice, Springer, NewYork) according to the formula E (mg ml^−1 cm^−1)=27+120(A280/A205)=30.5. Prior to quantitation by UV absorbance the protein solution was buffer-exchanged into 50 mM Na2SO4 using a NAP-5 column (Amersham-Pharmacia Biotech).
Error bars represent the standard deviation of multiple assays, where available.

Data set [2] is classed as physicochemical. The conditions noted are these: buffer, pH 7.2. The procedure:
The half lives of several GAT polypeptides were also measured at 37.5° C. according to the following procedure. GAT polypeptides 401 (SEQ ID NO: 6), 17-15H3 (SEQ ID NO: 601), 20-8H12 (SEQ ID NO: 739), 22-13B12 (SEQ ID NO: 781), 22-15B4 (SEQ ID NO: 946) and 22-18C5 (SEQ ID NO: 795) were incubated in a matrix of 25 mM Hepes, pH 7.2, 10 mM KCl and 10% methanol (“HKM”). At various timepoints, aliquots were withdrawn and assayed in triplicate at 22° C. using the continuous spectrophotometric assay described in Example 7 using saturating concentrations of glyphosate (20 mM for 401, 5 mM for the rest) and AcCoA (167 uM). The standard error at each time point averaged about 2.9%. GAT activity was plotted as a function of incubation time and the data was fitted to a curve for exponential decay (y=e^−x), where y is enzyme activity and x is time in hours, from which half life was calculated.

The next data set concerns tobacco plants. Put plainly: Herbicide spray tests of GAT expressing tobacco plants. The data set is classed as in vivo, Nicotiana tabacum. As for the experimental part:
Tobacco shoots generated as described in EXAMPLE 9 were excised from the explants and transferred to basal root induction (BRI) medium composed of half-strength Murashige and Skoog (MS) medium, pH 5.7, with 1.5% sucrose, 0.3% Gelrite, 0-200 uM glyphosate and 400 ug/ml Timentin. Rooted plants and axillary shoots were clonally propagated by cutting the stem and transferring it to fresh BRI medium until the desired number of clones was obtained. Rooted plants were carefully removed from the solid medium. Prior to placing the plants into small pots of soil, the roots were washed to remove any remaining Gelrite. A protective plastic cover was kept over the plants for at least one week until the plants were well established.
To determine if GAT expressing tobacco plants could tolerate simulated field rate sprays of glyphosate, clonal lines of several events per GAT variant were tested. A typical test was set up as follows: One clone from each event was sprayed with 1 ml of solution containing the isopropylamine salt of glyphosate (Sigma P5671) and 0.125% Triton X-100, pH 6.8 such that the amount of active ingredient sprayed was equivalent to that present in commercial glyphosate products. For example, to achieve 32 oz/acre (1×) of herbicide containing 40% active ingredient (“ai”), 2.4 ul of 40% ai formulation was diluted into 1 ml water and sprayed on a plant in a 4-inch square pot (16 in^2). A mock application (0×) with surfactant only was also included. In some cases a second spray was applied 1-4 weeks later. Plants were kept in controlled growth rooms at 25° C. and 70% humidity with 16 hr light.
Seed-grown wild type plants were also sprayed. […] All 0× plants were healthy, including the non-GAT control plants. Three weeks later all of the surviving plants were sprayed with an 8× dose.

From patent US7666644B2, “Glyphosate-N-acetyltransferase (GAT) genes” (Verdia, Inc., priority 2004, dated 2010) come the findings set out here.

For orientation: kcat means the number of substrate molecules converted per active site and unit of time at saturation. A word on the kcat/Km: it is the turnover number divided by the Michaelis constant.

Substitutions are numbered along the chain they refer to.

Description for N[C@@H](CC(=O)O)C(=O)O: (§1) GAT activity of several GAT polypeptides of the present invention was evaluated with respect to a number of amino acid substrates. The GAT polypeptide, AcCoA and amino substrate were incubated in 25 mM Hepes, pH 6.8, 10% ethylene glycol in the wells of a 96-well polystyrene plate. After 30 minutes, the reactions were stopped by the addition of 30 μl of 10 mM 5,5′-dithiobis-2-nitrobenzoate (DTNB) in 500 mM Tris, pH 7.5. After 2 minutes, absorbance was read at 412 nm in a Spectramax Plus plate reader (Molecular Devices, Sunnyvale, Calif.).
Description for N[C@@H](CO)C(=O)O: as §1
Description for O=C(O)CNCP(=O)(O)O: as §1

“non-native GAT polypeptide 17-15H3 (glyphosate-N-acetyltransferase), SEQ ID NO: 601 (Bacillus licheniformis DSM 13 = ATCC 14580; E119K/E65Q/E67Q/E68K/G37R/I132T/I135V/I15L/K101R/K144R/K58Q/L145I/L26I/L97I/R47G/R92K/T33S/T89S/V114A/Y130F/Y31F)”: in the data set with N[C@@H](CC(=O)O)C(=O)O, the Km is 2.95 ± 0.162 MM, the kcat is 7.25 ± 0.188 s⁻¹ and the catalytic efficiency (kcat/Km) was found to be 2470 M⁻¹ s⁻¹. Further, in the data set with N[C@@H](CO)C(=O)O, the Km stood at 60.1 ± 1.68 MM, the kcat was determined as 4.03 ± 0.263 s⁻¹ and the kcat/Km came out at 67.3 M⁻¹ s⁻¹. Besides, in the data set on O=C(O)CNCP(=O)(O)O, the Km came to 0.251 ± 0.0041 MM, the kcat was 19.2 ± 0.46 s⁻¹ and the kcat/Km was found to be 76200 M⁻¹ s⁻¹.
In the case of “native GAT polypeptide 401 (glyphosate-N-acetyltransferase), wild type, SEQ ID NO: 6 (Bacillus licheniformis DSM 13 = ATCC 14580)”, in the data set with N[C@@H](CC(=O)O)C(=O)O, the Km is on record as 6.7 MM, the kcat came out at 0.402 s⁻¹ and the kcat/Km is 60 M⁻¹ s⁻¹. In addition, in the data set with N[C@@H](CO)C(=O)O, the Km was 43 MM, the kcat came to 14.2 s⁻¹ and the kcat/Km was 330 M⁻¹ s⁻¹. For the same molecule, in the data set on O=C(O)CNCP(=O)(O)O, the Km came out at 1.27 ± 0.0144 MM, the kcat came out at 0.08917 ± 0.000717 s⁻¹ and the kcat/Km was 70.2 M⁻¹ s⁻¹.
With “non-native GAT polypeptide 25-8H7 (glyphosate-N-acetyltransferase), SEQ ID NO: 907 (Bacillus licheniformis DSM 13 = ATCC 14580; E119R/E14D/E65Q/E67K/E68K/G37R/G38S/I132T/I135V/I15L/I19V/I53V/I91V/K101R/K144R/K58Q/L105M/L106I/L145I/L26I/L36T/L97I/M75V/R47G/R92K/T33S/T89S/V114A/Y130F/Y31F/Y45F)”, in the data set with N[C@@H](CC(=O)O)C(=O)O, the Km was 4.56 ± 0.112 MM, the kcat was 11.7 ± 0.207 s⁻¹ and the kcat/Km is 2570 M⁻¹ s⁻¹. For the same molecule, in the data set with O=C(O)CNCP(=O)(O)O, the Km was 0.05 MM, the kcat is 24.7 ± 1.09 s⁻¹ and the kcat/Km was 493000 M⁻¹ s⁻¹.

B1: R12G1: further evolved GAT enzyme, SEQ ID NO 917 (protein)
chain: MIEVKPINAEDTYDLRHRVLRPNQPIEACMFESDLTRGAFHLGGFYGGKLISVASFHQAEHTELQGKKQYQLRGVATLEGYREQKAGSSLVKHAEEILRKRGADMIWCNARTSASGYYRKLGFSEQGEVFDTPPVGPHILMYKRIT
modifications: R12G1
For the molecule B1, in data set [1], the “GAT activity compared with the template polypeptides” value was “extremely high GAT activities comparable to those of the template polypeptides”.

B2: 22-13B12: GAT polypeptide, SEQ ID NO: 781 (protein)
chain: B1 chain with T36M, T62S, K67Q, V75M, M105I, I106L
modifications: D_S00397672_22-13B12
B2: the “Half-life” value in data set [2] stood at 67 h.

B3: 22-18C5: GAT polypeptide, SEQ ID NO: 795 (protein)
chain: B1 chain with T62S, K67Q, S88T, A103V, M105L, I106L
modifications: D_S00398097_GAT22-18C5
As to B3, in data set [2], the “Half-life” value was 43 h.

B4: R12G6: further evolved GAT enzyme, SEQ ID NO:927 (protein)
chain: B1 chain with E32D, S33N, G38S, T62S
modifications: R12G6
Consider B4, for which the “GAT activity compared with the template polypeptides” value in data set [1] was “extremely high GAT activities comparable to those of the template polypeptides”.

B5: R12G3: further evolved GAT enzyme, SEQ ID NO:921 (protein)
chain: B1 chain with E32D, S33N, T62S
modifications: R12G3
Take B5: in data set [1], the “GAT activity compared with the template polypeptides” value is “extremely high GAT activities comparable to those of the template polypeptides”.

B6: R12G8: further evolved GAT enzyme, SEQ ID NO:931 (protein)
chain: B1 chain with E32D, S33N, T36M, G38S, Y46H, K67Q, I106L
modifications: R12G8
As for B6, the “GAT activity compared with the template polypeptides” value in data set [1] is “extremely high GAT activities comparable to those of the template polypeptides”.

B7: 22-15B4: GAT enzyme SEQ ID NO:789; Table 9 prints SEQ ID NO: 946 (protein)
chain: B1 chain with E32D, T36M, G38S, K67Q, A103V, M105L, I106L, R119K
modifications: D_S00397832_GAT22-15B4
Take B7: in data set [2], the “Half-life” value came to 26 h.

B8: R12G4: further evolved GAT enzyme, SEQ ID NO:923 (protein)
chain: B1 chain with D14E, E32D, G38S, T62S
modifications: R12G4
Take B8: the “GAT activity compared with the template polypeptides” value in data set [1] is listed as “extremely high GAT activities comparable to those of the template polypeptides”.

B9: R12G7: further evolved GAT enzyme, SEQ ID NO:929 (protein)
chain: B1 chain with E32D, S33N, T36M, Y46H, K67Q, I106L
modifications: R12G7
As to B9, the “GAT activity compared with the template polypeptides” value in data set [1] is recorded as “extremely high GAT activities comparable to those of the template polypeptides”.

B10: R12G5: further evolved GAT enzyme, SEQ ID NO:925 (protein)
chain: B1 chain with D14E, E32D, T62S
modifications: R12G5
With B10, in data set [1], the “GAT activity compared with the template polypeptides” value is reported as “extremely high GAT activities comparable to those of the template polypeptides”.

B11: 20-8H12: evolved GAT; polypeptide SEQ ID NO:739, gene SEQ ID NO:738 (protein)
chain: B1 chain with D14E, M30I, T36M, K49R, T62S, K67Q, V75M, M105L, I106L, R119K
modifications: D_S00341806_GAT20-8H12
As for B11, the “Half-life” value in data set [2] is 54 h.

B12: R12G2: further evolved GAT enzyme, SEQ ID NO:919 (protein)
chain: B1 chain with G38S
modifications: R12G2
In the case of B12, in data set [1], the “GAT activity compared with the template polypeptides” value is “extremely high GAT activities comparable to those of the template polypeptides”.

B13: 0—5B8: evolved GAT gene, SEQ ID NO:190 (nucleic acid)
DNA: ATGATAGAGGTGAAACCGATTAACGCAGAGGATACCTATGAACTAAGGCATAAAATACTCAGACCAAACCAGCCGATAGAAGCGTGTATGTATGAAAGCGATTTACTTCGTGGTGCATTTCACTTAGGCGGCTTTTACAGGGGCAAACTGATTTCCATAGCTTCATTCCACCAGGCCGAGCACTCAGACCTCCAAGGCCAGAAACAGTACCAGCTCCGAGGTATGGCTACCTTGGAAGGTTATCGTGATCAGAAAGCGGGATCGAGTCTAATTAGACACGCTGAACAAATTCTTCGTAAGAGGGGGGCGGACTTGCTTTGGTGCAATGCGCGGACATCCGCCTCAGGCTACTACAAAAAGTTAGGCTTCAGCGAGCAGGGAGAGATATTTGATACGCCGCCAGTAGGACCTCACATCCTGATGTATAAAAGGCTCACA
modifications: Synthetic nucleic acid sequence; 0_5B8
In the case of B13, the “outcome two weeks after glyphosate spray” value in the data set on tobacco plants (0.5, 2 or 4× glyphosate (1× = 32 oz/acre of 40% ai), clonally propagated events, average of 5 leaves) is “survived the spraying procedure without signs of glyphosate damage”. Besides, the “outcome after second spray with an 8× dose” value with tobacco plants (8× glyphosate three weeks later) is recorded as “survived”.
